Assay results as given in publication PMC9482650, “Quantitative fragmentomics allow affinity mapping of interactomes” (Nature Communications, 2022).

Assays:
Experiment in all cases: holdup assay
Parameters in all cases: key: below the threshold = too weak to quantify, mostly under pKd 3.1 to 4
[1] = target: AHNAK1, Q09666
[2] = target: PDZRN4_1, Q6ZMN7
[3] = target: T1, NHERF3_3, Q5T2W1
T1 sequence (Q5T2W1 238-333, limits assumed, looked up): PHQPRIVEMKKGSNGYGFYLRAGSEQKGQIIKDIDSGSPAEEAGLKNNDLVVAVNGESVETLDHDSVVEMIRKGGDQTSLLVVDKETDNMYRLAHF

[4] = target: TJP2_1, Q9UDY2
Sequence of TJP2_1, Q9UDY2 (Q9UDY2 24-128): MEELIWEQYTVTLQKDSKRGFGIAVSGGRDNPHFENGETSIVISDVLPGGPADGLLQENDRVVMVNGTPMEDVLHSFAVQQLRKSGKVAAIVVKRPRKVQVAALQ

[5] = target: Inadl_3, Q8NI35
Sequence of Inadl_3, Q8NI35 (Q8NI35 359-469): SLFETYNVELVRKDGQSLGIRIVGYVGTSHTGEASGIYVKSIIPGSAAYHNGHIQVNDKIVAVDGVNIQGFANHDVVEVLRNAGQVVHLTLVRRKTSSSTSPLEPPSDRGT

[6] = target: IL16_1, Q14005
Sequence of IL16_1, Q14005 (Q14005 210-306): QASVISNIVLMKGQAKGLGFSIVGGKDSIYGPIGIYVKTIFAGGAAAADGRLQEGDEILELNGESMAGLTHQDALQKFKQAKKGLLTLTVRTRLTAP

[7] = target: MAGI2_3, Q86UL8
Sequence of MAGI2_3, Q86UL8 (Q86UL8 600-682): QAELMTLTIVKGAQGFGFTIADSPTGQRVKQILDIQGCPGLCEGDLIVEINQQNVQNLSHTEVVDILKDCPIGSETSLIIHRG

[8] = target: MAGI2_5, Q86UL8
Sequence of MAGI2_5, Q86UL8 (Q86UL8 915-1017): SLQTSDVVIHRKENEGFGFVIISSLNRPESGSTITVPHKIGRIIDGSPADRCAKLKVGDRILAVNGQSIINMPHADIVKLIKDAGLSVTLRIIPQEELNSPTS

[9] = target: Inadl_1, Q8NI35
Sequence of Inadl_1, Q8NI35 (Q8NI35 113-229): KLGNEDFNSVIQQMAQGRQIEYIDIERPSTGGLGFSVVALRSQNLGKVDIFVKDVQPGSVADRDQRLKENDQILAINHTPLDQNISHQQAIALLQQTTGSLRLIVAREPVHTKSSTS

[10] = target: T2, MPDZ_12, O75970
T2 sequence (O75970 1857-1958, limits assumed, looked up): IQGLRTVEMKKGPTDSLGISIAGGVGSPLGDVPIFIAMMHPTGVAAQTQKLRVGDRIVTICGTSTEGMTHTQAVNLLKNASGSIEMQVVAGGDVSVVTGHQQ

[11] = target: T3, MPDZ_5, O75970
T3 sequence (O75970 695-796, limits assumed, looked up): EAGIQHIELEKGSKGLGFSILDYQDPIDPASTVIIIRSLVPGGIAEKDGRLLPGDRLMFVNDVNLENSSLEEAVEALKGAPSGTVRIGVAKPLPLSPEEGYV

[12] = target: T4, GRIP1_2, Q9Y3R0
T4 sequence (Q9Y3R0 145-248, limits assumed, looked up): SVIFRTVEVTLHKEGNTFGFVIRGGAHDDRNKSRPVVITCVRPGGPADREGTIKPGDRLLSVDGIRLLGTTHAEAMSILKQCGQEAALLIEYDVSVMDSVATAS

[13] = target: NHERF4_2, Q86UT5
Sequence of NHERF4_2, Q86UT5 (Q86UT5 220-308): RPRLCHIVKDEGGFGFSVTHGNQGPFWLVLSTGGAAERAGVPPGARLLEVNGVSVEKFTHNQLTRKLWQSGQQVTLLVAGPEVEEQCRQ

[14] = target: T5, MPP7, Q5T2T1
T5 sequence (Q5T2T1 134-230, limits assumed, looked up): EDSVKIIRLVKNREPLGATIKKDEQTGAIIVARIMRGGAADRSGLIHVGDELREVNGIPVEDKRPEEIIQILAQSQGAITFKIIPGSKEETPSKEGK

[15] = target: T6, TIAM2, Q8IVF5
T6 sequence (Q8IVF5 885-986, limits assumed, looked up): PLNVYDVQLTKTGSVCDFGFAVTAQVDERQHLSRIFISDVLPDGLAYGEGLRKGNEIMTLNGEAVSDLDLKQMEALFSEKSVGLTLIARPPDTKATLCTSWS

[16] = target: FRMPD2_1, Q68DX3
Sequence of FRMPD2_1, Q68DX3 (Q68DX3 770-861): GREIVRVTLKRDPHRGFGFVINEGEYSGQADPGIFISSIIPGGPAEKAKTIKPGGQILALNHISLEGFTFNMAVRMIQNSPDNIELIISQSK

[17] = target: NHERF2_2, Q15599
Sequence of NHERF2_2, Q15599 (Q15599 142-238): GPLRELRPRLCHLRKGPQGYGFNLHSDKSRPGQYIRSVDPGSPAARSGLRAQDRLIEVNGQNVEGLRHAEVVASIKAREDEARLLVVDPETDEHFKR

[18] = target: MAGI2_4, Q86UL8
Sequence of MAGI2_4, Q86UL8 (Q86UL8 772-865): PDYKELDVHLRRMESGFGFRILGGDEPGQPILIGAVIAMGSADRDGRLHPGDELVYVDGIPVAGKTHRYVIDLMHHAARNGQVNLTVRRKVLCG

[19] = target: T7, FRMPD1, Q5SYB0
T7 sequence (Q5SYB0 52-145, limits assumed, looked up): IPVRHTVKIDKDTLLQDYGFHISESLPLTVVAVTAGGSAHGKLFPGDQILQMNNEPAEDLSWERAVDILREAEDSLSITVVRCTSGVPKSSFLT

[20] = target: MAGI1_1, Q96QZ7
Sequence of MAGI1_1, Q96QZ7 (Q96QZ7 1-106): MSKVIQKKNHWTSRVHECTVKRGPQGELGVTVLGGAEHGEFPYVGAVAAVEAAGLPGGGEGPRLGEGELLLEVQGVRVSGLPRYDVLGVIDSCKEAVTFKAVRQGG

[21] = target: DLG1_3, Q12959
Sequence of DLG1_3, Q12959 (Q12959 457-571): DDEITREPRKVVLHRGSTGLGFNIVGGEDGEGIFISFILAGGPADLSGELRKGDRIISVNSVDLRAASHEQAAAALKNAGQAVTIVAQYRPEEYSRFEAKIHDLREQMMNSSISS

[22] = target: T8, HTRA4, P83105
T8 sequence (P83105 378-476, limits assumed, looked up): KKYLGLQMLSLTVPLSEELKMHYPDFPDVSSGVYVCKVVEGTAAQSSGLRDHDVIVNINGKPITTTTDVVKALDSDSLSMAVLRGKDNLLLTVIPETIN

[23] = target: GRIP2_7, Q9C0E4
Sequence of GRIP2_7, Q9C0E4 (Q9C0E4 934-1023): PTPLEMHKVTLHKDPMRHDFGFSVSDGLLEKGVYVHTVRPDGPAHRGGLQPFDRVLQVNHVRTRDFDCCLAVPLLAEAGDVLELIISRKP

[24] = target: Inadl_2, Q8NI35
Sequence of Inadl_2, Q8NI35 (Q8NI35 238-335): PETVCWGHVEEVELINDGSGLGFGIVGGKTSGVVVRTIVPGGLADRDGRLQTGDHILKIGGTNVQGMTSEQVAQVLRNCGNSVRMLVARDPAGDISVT

[25] = target: T9, TJP3_3, O95049
T9 sequence (O95049 375-456, limits assumed, looked up): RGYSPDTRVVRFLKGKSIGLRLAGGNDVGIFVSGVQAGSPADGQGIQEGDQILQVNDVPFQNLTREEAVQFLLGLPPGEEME

[26] = target: T10, SNTB1, Q13884
T10 sequence (Q13884 107-205, limits assumed, looked up): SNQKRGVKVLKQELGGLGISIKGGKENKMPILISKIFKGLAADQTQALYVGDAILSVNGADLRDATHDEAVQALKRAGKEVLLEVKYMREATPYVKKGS

[27] = target: GRID2IP_1, A4D2P6
Sequence of GRID2IP_1, A4D2P6 (A4D2P6 1-87): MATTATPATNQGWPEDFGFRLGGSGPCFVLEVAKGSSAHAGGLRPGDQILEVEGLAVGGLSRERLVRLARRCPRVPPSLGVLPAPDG

[28] = target: IL16_4, Q14005
Sequence of IL16_4, Q14005 (Q14005 1229-1329): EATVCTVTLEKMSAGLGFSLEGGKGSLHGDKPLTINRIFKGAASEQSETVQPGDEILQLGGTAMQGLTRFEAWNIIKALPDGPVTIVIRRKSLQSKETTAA

[29] = plain residues with an end cap or a label only (N-terminal biotin on a linker: ttds)
[30] = plain residues with an end cap or a label only (N-terminal biotin on a linker: ahx)

Sequence of AHNAK1, Q09666 (Q09666 4-100): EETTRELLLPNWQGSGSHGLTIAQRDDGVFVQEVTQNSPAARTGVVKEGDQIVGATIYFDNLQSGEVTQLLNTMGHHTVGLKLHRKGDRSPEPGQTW
Sequence of PDZRN4_1, Q6ZMN7 (Q6ZMN7 213-318): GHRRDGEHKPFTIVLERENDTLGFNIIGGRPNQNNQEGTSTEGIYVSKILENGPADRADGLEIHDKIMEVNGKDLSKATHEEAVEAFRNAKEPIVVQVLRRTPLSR

PFRSRSPSEV [GPR6, P46095]
pKd [1, 29]: below the threshold | pKd [2, 29]: 3.57 | pKd [3, 29]: below the threshold | pKd [4, 29]: below the threshold | pKd [5, 29]: below the threshold | pKd [6, 29]: below the threshold | pKd [7, 29]: below the threshold | pKd [8, 29]: below the threshold | pKd [9, 29]: below the threshold | pKd [10, 29]: below the threshold | pKd [11, 29]: below the threshold | pKd [12, 29]: 3.52 | pKd [13, 29]: below the threshold | pKd [14, 29]: below the threshold | pKd [15, 29]: below the threshold | pKd [16, 29]: below the threshold | pKd [17, 29]: below the threshold | pKd [18, 29]: below the threshold | pKd [19, 29]: below the threshold | pKd [20, 29]: below the threshold | pKd [21, 29]: 3.81 | pKd [22, 29]: below the threshold | pKd [23, 29]: below the threshold | pKd [24, 29]: below the threshold | pKd [25, 29]: below the threshold | pKd [26, 29]: below the threshold | pKd [27, 29]: below the threshold | pKd [28, 29]: below the threshold

PKMKLNETSF [SHKBP1, Q8TBC3]
pKd [1, 30]: below the threshold | pKd [2, 30]: below the threshold | pKd [3, 30]: below the threshold | pKd [4, 30]: below the threshold | pKd [5, 30]: below the threshold | pKd [6, 30]: below the threshold | pKd [7, 30]: below the threshold | pKd [8, 30]: 3.53 | pKd [9, 30]: below the threshold | pKd [10, 30]: below the threshold | pKd [11, 30]: below the threshold | pKd [12, 30]: below the threshold | pKd [13, 30]: below the threshold | pKd [14, 30]: below the threshold | pKd [15, 30]: below the threshold | pKd [16, 30]: below the threshold | pKd [17, 30]: 4.32 | pKd [18, 30]: 3.69 | pKd [19, 30]: below the threshold | pKd [20, 30]: below the threshold | pKd [21, 30]: below the threshold | pKd [22, 30]: below the threshold | pKd [23, 30]: below the threshold | pKd [24, 30]: below the threshold | pKd [25, 30]: below the threshold | pKd [26, 30]: below the threshold | pKd [27, 30]: below the threshold | pKd [28, 30]: below the threshold

SHSSKGETAV [FZD7, O75084]
pKd [1, 29]: below the threshold | pKd [2, 29]: 4.3 | pKd [3, 29]: below the threshold | pKd [4, 29]: below the threshold | pKd [5, 29]: below the threshold | pKd [6, 29]: 3.66 | pKd [7, 29]: 3.49 | pKd [8, 29]: below the threshold | pKd [9, 29]: below the threshold | pKd [10, 29]: below the threshold | pKd [11, 29]: below the threshold | pKd [12, 29]: below the threshold | pKd [13, 29]: below the threshold | pKd [14, 29]: below the threshold | pKd [15, 29]: below the threshold | pKd [16, 29]: 3.8 | pKd [17, 29]: below the threshold | pKd [18, 29]: below the threshold | pKd [19, 29]: 3.6 | pKd [20, 29]: below the threshold | pKd [21, 29]: 4.01 | pKd [22, 29]: below the threshold | pKd [23, 29]: below the threshold | pKd [24, 29]: below the threshold | pKd [25, 29]: below the threshold | pKd [26, 29]: 4.49 | pKd [27, 29]: below the threshold | pKd [28, 29]: below the threshold
